B1: RAB11B (parent)
chain: AVPTDEARAFAEKNNLSFIETSAL
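Further: lentivirally expressed fusions sorted by FACS into six bins by GFP to DsRed ratio, PSI derived from sequencing read proportions per bin multiplied by bin number.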

Variants of B1 are the subject of the data set. Description: protein stability index of a GFP-peptide fusion (GPS, HEK-293T) (PSI 1-6); higher = more stable. Particulars: c terminus: a fixed tail appended.
AVPTDEARAFAEKNNGSFIETSAL: the protein stability index was found to be 4.3.

For AVPTDEARAFAEKNNHSFIETSAL, the protein stability index worked out at 4.06. With AVPTDEARAFAEKNNFSFIETSAL, the protein stability index turned out to be 3.36.

As to AVPTDEARAFAEKNNPSFIETSAL, the protein stability index stood at 4.47. On to AVPTDEARAFAEKNNISFIETSAL, for which the protein stability index is 3.95. For the variant AVPTDEARAFAEKNNESFIETSAL, the protein stability index came to 5.02. Regarding AVPTDEARAFAEKNNQSFIETSAL, the protein stability index was 4. The value for AVPTDEARAFAEKNNDSFIETSAL was 4.52; that for AVPTDEARAFAEKNNCSFIETSAL was 4.1. The value for AVPTDEARAFAEKNNRSFIETSAL was 4.42; that for AVPTDEARAFAEKNNMSFIETSAL was 4.2; that for AVPTDEARAFAEKNNYSFIETSAL was 3.18. The value for AVPTDEARAFAEKNNTSFIETSAL was 4.57; that for AVPTDEARAFAEKNNKSFIETSAL was 4.62; that for AVPTDEARAFAEKNNASFIETSAL was 3.8. Regarding AVPTDEARAFAEKNNVSFIETSAL, the protein stability index was 4.29. With AVPTDEARAFAEKNNNSFIETSAL, the protein stability index was 4.25.

Turning to AVPTDEARAFAEKNNWSFIETSAL, the protein stability index was found to be 3.25. The value for AVPTDEARAFAEKNNSSFIETSAL was 4.37; that for AVPTDEARAFAEHNNLSFIETSAL was 2.24.

With AVPTDEARAFAEGNNLSFIETSAL, the protein stability index is 3.17. Take AVPTDEARAFAEWNNLSFIETSAL: the protein stability index was 1.94.

Consider AVPTDEARAFAEQNNLSFIETSAL, for which the protein stability index is 2.84. For AVPTDEARAFAEYNNLSFIETSAL, the protein stability index came out at 1.88. Regarding AVPTDEARAFAEENNLSFIETSAL, the protein stability index is 3.9. On to AVPTDEARAFAERNNLSFIETSAL, for which the protein stability index is 2.5. AVPTDEARAFAELNNLSFIETSAL: the protein stability index came to 2.14. For AVPTDEARAFAEANNLSFIETSAL, the protein stability index was found to be 3.08. Turning to AVPTDEARAFAENNNLSFIETSAL, the protein stability index came to 1.59. As for AVPTDEARAFAEDNNLSFIETSAL, the figure is 3.24; as for AVPTDEARAFAEVNNLSFIETSAL, 2.13; as for AVPTDEARAFAECNNLSFIETSAL, 2.47. As for AVPTDEARAFAEFNNLSFIETSAL, the protein stability index was determined as 2.49. As for AVPTDEARAFAEMNNLSFIETSAL, the figure is 2.09; as for AVPTDEARAFAEPNNLSFIETSAL, 2.12. Consider AVPTDEARAFAEINNLSFIETSAL, for which the protein stability index worked out at 2.09.

Turning to AVPTDEARAFAESNNLSFIETSAL, the protein stability index is 2.48. Consider AVPTDEARAFAETNNLSFIETSAL, for which the protein stability index amounted to 2.63.

As to AVPTDEARAFAEKYNLSFIETSAL, the protein stability index is 2.53.

Turning to AVPTDEARAFAEKKNLSFIETSAL, the protein stability index stood at 3.38. The value for AVPTDEARAFAEKANLSFIETSAL was 2.48; that for AVPTDEARAFAEKPNLSFIETSAL was 2.53; that for AVPTDEARAFAEKSNLSFIETSAL was 2.84. As for AVPTDEARAFAEKMNLSFIETSAL, the figure is 2.25; as for AVPTDEARAFAEKGNLSFIETSAL, 2.73; as for AVPTDEARAFAEKFNLSFIETSAL, 2.25. As for AVPTDEARAFAEKQNLSFIETSAL, the protein stability index worked out at 3.47. With AVPTDEARAFAEKENLSFIETSAL, the protein stability index was 4.35. Turning to AVPTDEARAFAEKTNLSFIETSAL, the protein stability index is 2.88. Turning to AVPTDEARAFAEKWNLSFIETSAL, the protein stability index worked out at 2.83. As for AVPTDEARAFAEKCNLSFIETSAL, the figure is 2.18; as for AVPTDEARAFAEKLNLSFIETSAL, 2.23. Turning to AVPTDEARAFAEKINLSFIETSAL, the protein stability index amounted to 2.23.

On to AVPTDEARAFAEKHNLSFIETSAL, for which the protein stability index worked out at 2.26. In the case of AVPTDEARAFAEKRNLSFIETSAL, the protein stability index is 2.27. Turning to AVPTDEARAFAEKVNLSFIETSAL, the protein stability index came to 2.18. Consider AVPTDEARAFAEKDNLSFIETSAL, for which the protein stability index turned out to be 3.96. AVPTDEARAFAEKNNLSFKETSAL: the protein stability index amounted to 4.79. As for AVPTDEARAFAEKNNLSFLETSAL, the protein stability index worked out at 3.25. The value for AVPTDEARAFAEKNNLSFCETSAL was 4.34. For the variant AVPTDEARAFAEKNNLSFVETSAL, the protein stability index was found to be 3.26. Consider AVPTDEARAFAEKNNLSFFETSAL, for which the protein stability index is 4.37. Turning to AVPTDEARAFAEKNNLSFEETSAL, the protein stability index amounted to 4.59. With AVPTDEARAFAEKNNLSFTETSAL, the protein stability index was 4.11. Take AVPTDEARAFAEKNNLSFPETSAL: the protein stability index turned out to be 5.04. The value for AVPTDEARAFAEKNNLSFAETSAL was 4.6; that for AVPTDEARAFAEKNNLSFQETSAL was 4.38.

For AVPTDEARAFAEKNNLSFRETSAL, the protein stability index was found to be 4.54.

As to AVPTDEARAFAEKNNLSFMETSAL, the protein stability index was 4.21. Turning to AVPTDEARAFAEKNNLSFSETSAL, the protein stability index is 4.56. For the variant AVPTDEARAFAEKNNLSFHETSAL, the protein stability index amounted to 3.49.

With AVPTDEARAFAEKNNLSFYETSAL, the protein stability index was 3.73. Turning to AVPTDEARAFAEKNNLSFWETSAL, the protein stability index came to 3.62. As for AVPTDEARAFAEKNNLSFGETSAL, the figure is 4.64; as for AVPTDEARAFAEKNNLSFDETSAL, 4.99; as for AVPTDEARAFAEKNNLSFNETSAL, 4.1. Take AVPTDEARAFAEKNNLSDIETSAL: the protein stability index is 5.17. On to AVPTDEARAFAEKNNLSYIETSAL, for which the protein stability index is 2.97. Turning to AVPTDEARAFAEKNNLSAIETSAL, the protein stability index was 4.78. As for AVPTDEARAFAEKNNLSPIETSAL, the figure is 4.88; as for AVPTDEARAFAEKNNLSEIETSAL, 5.3; as for AVPTDEARAFAEKNNLSRIETSAL, 4.29.

For the variant AVPTDEARAFAEKNNLSCIETSAL, the protein stability index is 4.48.

Take AVPTDEARAFAEKNNLSNIETSAL: the protein stability index was 4.95. AVPTDEARAFAEKNNLSTIETSAL: the protein stability index amounted to 4.97. With AVPTDEARAFAEKNNLSSIETSAL, the protein stability index worked out at 4.89. As for AVPTDEARAFAEKNNLSHIETSAL, the figure is 4.51.

As to AVPTDEARAFAEKNNLSKIETSAL, the protein stability index came to 4.67.

Regarding AVPTDEARAFAEKNNLSGIETSAL, the protein stability index turned out to be 4.47. On to AVPTDEARAFAEKNNLSWIETSAL, for which the protein stability index is 3.67. The value for AVPTDEARAFAEKNNLSMIETSAL was 4.1; that for AVPTDEARAFAEKNNLSQIETSAL was 4.18; that for AVPTDEARAFAEKNNLSLIETSAL was 3.53. As for AVPTDEARAFAEKNNLSIIETSAL, the protein stability index turned out to be 4.23.

(Values after the supplement of paper PMC10567573.)
